Square brackets hold non-standard residues; d marks the D form. Ends that are not written are not given here. pGlu = O=C1CC[C@@H](C(=O)O)N1

The target of the experiment is T1, mouse ADAMTS7 (Mus musculus, UniProt Q68SA9).
T1 construct: Full-length mouse Adamts7 1-1857 (Uniprot Q68SA9, WT or E373Q catalytic mutant); expressed in transfected cells; host or cells: Human Coronary Artery Smooth Muscle Cells (HCA-SMC, Lonza), adenovirus 50 MOI
T1 sequence (Q68SA9 221-1657): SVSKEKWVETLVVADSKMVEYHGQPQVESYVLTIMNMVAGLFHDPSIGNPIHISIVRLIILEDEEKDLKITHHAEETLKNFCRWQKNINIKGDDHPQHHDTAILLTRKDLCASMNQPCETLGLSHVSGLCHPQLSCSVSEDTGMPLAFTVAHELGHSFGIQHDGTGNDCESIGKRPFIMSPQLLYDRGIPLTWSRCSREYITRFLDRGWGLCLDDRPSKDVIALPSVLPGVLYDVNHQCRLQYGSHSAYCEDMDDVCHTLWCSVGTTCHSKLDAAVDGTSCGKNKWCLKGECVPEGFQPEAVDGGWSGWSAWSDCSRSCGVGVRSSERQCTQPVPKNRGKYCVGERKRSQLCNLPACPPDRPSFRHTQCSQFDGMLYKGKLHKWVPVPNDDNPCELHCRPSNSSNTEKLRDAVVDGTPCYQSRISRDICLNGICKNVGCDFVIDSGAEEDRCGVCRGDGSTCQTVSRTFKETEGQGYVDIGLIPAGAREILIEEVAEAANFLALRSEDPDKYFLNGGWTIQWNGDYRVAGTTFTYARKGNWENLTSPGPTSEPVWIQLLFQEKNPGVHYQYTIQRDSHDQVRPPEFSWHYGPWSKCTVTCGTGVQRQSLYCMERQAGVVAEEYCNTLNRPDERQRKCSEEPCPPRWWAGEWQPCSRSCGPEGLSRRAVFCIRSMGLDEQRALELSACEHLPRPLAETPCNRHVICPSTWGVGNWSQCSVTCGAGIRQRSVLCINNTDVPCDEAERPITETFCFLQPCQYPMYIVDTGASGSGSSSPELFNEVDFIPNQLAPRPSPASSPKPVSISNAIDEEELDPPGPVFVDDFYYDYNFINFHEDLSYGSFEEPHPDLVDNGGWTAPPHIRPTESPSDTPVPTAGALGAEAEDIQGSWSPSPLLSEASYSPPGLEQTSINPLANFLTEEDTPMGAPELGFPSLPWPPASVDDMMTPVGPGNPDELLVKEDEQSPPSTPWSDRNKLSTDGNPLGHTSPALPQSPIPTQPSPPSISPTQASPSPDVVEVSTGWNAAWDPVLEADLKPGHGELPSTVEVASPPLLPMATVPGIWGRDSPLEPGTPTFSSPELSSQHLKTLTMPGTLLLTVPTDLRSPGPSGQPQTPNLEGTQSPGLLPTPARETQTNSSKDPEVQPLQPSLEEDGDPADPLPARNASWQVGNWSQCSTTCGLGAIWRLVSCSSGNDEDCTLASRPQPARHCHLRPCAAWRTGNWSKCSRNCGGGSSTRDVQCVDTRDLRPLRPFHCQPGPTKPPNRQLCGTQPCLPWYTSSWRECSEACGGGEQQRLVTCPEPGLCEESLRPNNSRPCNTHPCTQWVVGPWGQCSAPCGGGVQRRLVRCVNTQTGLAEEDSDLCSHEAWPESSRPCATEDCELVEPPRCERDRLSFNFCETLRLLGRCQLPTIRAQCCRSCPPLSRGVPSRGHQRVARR
The experiment is described as follows: TMT10 TAILS N-terminomics, SMC1 experiment (Ad-mADAMTS7 WT vs EQ vs Luc, technical replicates, trypsin digest). The experiment is classed as cell-based. To be noted: TAILS neo-N-terminal peptide abundance; log fold change, Ad-mADAMTS7 WT over Luc. In short, it runs like this:
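Full-length mouse ADAMTS7 (WT or E373Q mutant, C-terminal 3xFLAG) or luciferase was transduced via adenovirus, 50 MOI, into HCA-SMC (SMC1, SMC2) or HUVEC. SMC1: pooled media, technical triplicates 400 ug; SMC2: process triplicates 300 ug; HUVEC: process triplicates 200 ug, bFGF2 10 ng/ml.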
“ACTB_21 (FAGDDAPR; listed as Homo sapiens)” showed a logFC.mWT.over.Lux of 1.09.
The same measure for “ACTB_105 (LTEAPLNPKANR; listed as Homo sapiens)”: 1.88.
On to “ADAM9_69 (VIQAEGKEHIIHLER; listed as Homo sapiens)”, for which the logFC.mWT.over.Lux was found to be 1.45.
The same measure for “AEBP1_37 (FLEGFLSELEPEPR; listed as Homo sapiens)”: 3.23.
For the substance “APLP2_579 (ISETPVDVR; listed as Homo sapiens)”, the logFC.mWT.over.Lux is 2.27.
The figure for “CCDC80_66 (LEEPNLQPLQR; listed as Homo sapiens)” is 3.84.
The same measure for “ECM1_134 (FGDQSHPEPESWNAAQHCQQDR; listed as Homo sapiens)”: 3.02.
In turn, “EFEMP1_124 (AVAGPEMQTGR; listed as Homo sapiens)” showed a logFC.mWT.over.Lux of 3.84.
“EFEMP1_125 (VAGPEMQTGR; listed as Homo sapiens)”: the logFC.mWT.over.Lux is listed as 1.92.
“EFHD2_67 (QGIGEPQSPSR; listed as Homo sapiens)”: the logFC.mWT.over.Lux is 0.81.
The same measure for “EHBP1L1_298 (TAPTPAPR; listed as Homo sapiens)”: 1.01; for “FBLN2_259 (ALGPPAPVQAKAR; listed as Homo sapiens)”: 1.29; for “FBLN2_260 (LGPPAPVQAKAR; listed as Homo sapiens)”: 3.46.
With “FBN1_29 (LEAGNVKETR; listed as Homo sapiens)”, the logFC.mWT.over.Lux amounted to 4.70.
The same measure for “FBN1_53 (LKGPNVCGSR; listed as Homo sapiens)”: 4.89; for “FLNA_612 (SVEGPSQAKIECDDKGDGSCDVR; listed as Homo sapiens)”: 1.87; for “FLNA_695 (FTVDAKHGGKAPLR; listed as Homo sapiens)”: 4.79.
Regarding “FLNA_1285 (LTQTGGPHVKAR; listed as Homo sapiens)”, the logFC.mWT.over.Lux worked out at 4.95.
“FN1_36 (MVQPQSPVAVSQSKPGCYDNGKHYQINQQWER; listed as Homo sapiens)”: the logFC.mWT.over.Lux was determined as 3.73.
“FN1_40 (QSPVAVSQSKPGCYDNGKHYQINQQWER; listed as Homo sapiens)” showed a logFC.mWT.over.Lux of 3.87.
Substance “FN1_45 (VSQSKPGCYDNGKHYQINQQWER; listed as Homo sapiens)” had a logFC.mWT.over.Lux of 3.70.
Turning to “FN1_47 ([code q]SKPGCYD[code n]GKHYQINQQWER; not fully specified; listed as Homo sapiens)”, the logFC.mWT.over.Lux amounted to 3.08.
Regarding “FN1_281 (SGSGPFTDVR; listed as Homo sapiens)”, the logFC.mWT.over.Lux is on record as 2.44.
The figure for “FN1_282 (GSGPFTDVR; listed as Homo sapiens)” is 3.74; for “FN1_886 (NQESTPVVIQQETTGTPR; listed as Homo sapiens)” it is 1.70.
The same measure for “FN1_1143 (LTPGVEYVYTIQVLR; listed as Homo sapiens)”: 0.85; for “FN1_1656 (SSSPVTGYR; listed as Homo sapiens)”: 1.44.
The same measure for “FN1_1731 (FTDVDVDSIKIAWESPQGQVSR; listed as Homo sapiens)”: 2.59; for “FN1_2143 (FEEHGFR; listed as Homo sapiens)”: 1.11.
On to “FN1_2217 (FQDTSEYIISCHPVGTDEEPLQFR; listed as Homo sapiens)”, for which the logFC.mWT.over.Lux turned out to be 2.41.
Consider “GALNT2_31 (LAGGAGGGAGR; listed as Homo sapiens)”, for which the logFC.mWT.over.Lux was found to be 0.76.
The same measure for “GSN_35 (SQAGAPQGR; listed as Homo sapiens)”: 4.42; for “GSN_413 (HIANVER; listed as Homo sapiens)”: 1.99; for “HEG1_49 (GAGLELQLER; listed as Homo sapiens)”: 1.72.
“HLA−C_52 (VDDTQFVR; listed as Homo sapiens)” came in with a logFC.mWT.over.Lux of 1.14.
The same measure for “HSPG2_275 (LLPGSVR; listed as Homo sapiens)”: 2.87; for “HSPG2_1937 (SSAGQQVAR; listed as Homo sapiens)”: 0.79; for “HSPG2_2331 (ANLAYPAGSTQPIR; listed as Homo sapiens)”: 2.07.
For the substance “HSPG2_2333 (LAYPAGSTQPIR; listed as Homo sapiens)”, the logFC.mWT.over.Lux is recorded as 1.93.
The same measure for “HSPG2_2688 (VADSGEYVCR; listed as Homo sapiens)”: 3.16; for “HSPG2_3250 (SPLPWQHR; listed as Homo sapiens)”: 1.00.
Regarding “HSPG2_3542 (IAHVELADAGQYR; listed as Homo sapiens)”, the logFC.mWT.over.Lux amounted to 0.60.
“HSPG2_3647 ([pGlu]GKVKAFAHLQVPER; listed as Homo sapiens)” displayed a logFC.mWT.over.Lux of 0.96.
The figure for “HSPG2_3672 (SFLPLPTIKDAYR; listed as Homo sapiens)” is 1.09; for “HSPG2_3813 (SSGFIGCVR; listed as Homo sapiens)” it is 0.81; for “HSPG2_4004 (SAEPLALGR; listed as Homo sapiens)” it is 0.88.
“HSPG2_4021 (LNKDGSLR; listed as Homo sapiens)” came in with a logFC.mWT.over.Lux of 0.70.
The same measure for “HSPG2_4075 (GCVGEVSVNGKR; listed as Homo sapiens)”: 0.77; for “HSPG2_4133 (DGFKGDLCEHEENPCQLR; listed as Homo sapiens)”: 0.63.
The figure for “HTRA1_33 (LAAGCPDR; listed as Homo sapiens)” is 2.87; for “IFI30_43 (YKTGNLYLR; listed as Homo sapiens)” it is 3.19; for “IGFBP3_31 (SAGLGPVVR; listed as Homo sapiens)” it is 2.46.
For the substance “IGFBP3_32 (AGLGPVVR; listed as Homo sapiens)”, the logFC.mWT.over.Lux is given as 4.06.
“IGFBP3_200 (FSSESKR; listed as Homo sapiens)” returned a logFC.mWT.over.Lux of 2.33.
The same measure for “IGFBP7_101 (AAGGPGVSGVCVCKSR; listed as Homo sapiens)”: 3.99; for “LASP1_123 (HEEFEKSR; listed as Homo sapiens)”: 0.87; for “LGALS1_53 (HGDANTIVCNSKDGGAWGTEQR; listed as Homo sapiens)”: 4.83.
The same measure for “LGALS3BP_447 (FQAPSDYR; listed as Homo sapiens)”: 4.70; for “LOXL1_219 (VASAGVIYPYQPR; listed as Homo sapiens)”: 0.99.
The same measure for “LOXL2_37 (FQQPAPEYHQPQAPANVAKIQLR; listed as Homo sapiens)”: 3.37; for “LOXL2_38 ([code q]QPAPEYHQPQAPANVAKIQLR; not fully specified; listed as Homo sapiens)”: 1.37.
